This is an account of results in US8975044B2, “Polynucleotides encoding for frizzled-binding agents and uses thereof” (OncoMed Pharmaceuticals, Inc., priority 2008, dated 2015).

The test system of one assay is OMP-C28 tumors. The assay can be described thus: Flow cytometry of ESA and CD44 on cells of treated OMP-C28 tumors. The assay is classed as in vivo, NOD/SCID mice. The conditions noted are these: tumors harvested day 48; control antibody 64%. Here is the method: Control and treated tumors from the OMP-C28 xenograft study described above (Example 7) were harvested at the end of the study (day 48). The tumors were processed and dissociated into single cells. Tumor cells were then incubated with biotinylated mouse antibodies (α-mouse CD45-biotin 1:200 dilution and rat α-mouse H2 Kd-biotin 1:100 dilution, BioLegend, San Diego, Calif.) on ice for 30 min followed by addition of streptavidin-labeled magnetic beads (Invitrogen, Carlsbad, Calif.) to remove mouse cells with the aid of a magnet.
For analysis of cell surface markers, the single tumor cell suspension was stained with anti-ESA (Biomeda) and anti-CD44 (BD Biosciences) antibodies which were directly conjugated to fluorochromes. Dead cells were excluded by using the viability dye DAPI. Flow cytometry was performed using a FACS Aria (Becton Dickinson). Side scatter and forward scatter profiles were used to eliminate cell clumps.
Background: Flow cytometry measures light scatter and fluorescence of single cells or particles in a stream.

Assay [1] deals with T1, FZD7 (Homo sapiens, UniProt O75084). The assay can be described thus: FACS binding to FZD-transfected HEK293 cells. More on the design: plasmid DNA expressing full-length FZD1, 2, 5, 7 or 8; expressed in transfected cells; host or cells: HEK293. As to conditions: FACS MFI dose-response, full-length FZD in HEK293, 20 μg/ml 4-fold dilutions. Here is the method: (§1) To measure antibody binding to FZD by flow cytometry HEK293 cells were co-transfected with FZD expression vectors and the transfection marker GFP. Twenty-four to forty-eight hours post-transfection, cells were collected in suspension and incubated on ice with anti-FZD antibodies (10 μg/ml unless otherwise indicated) or control IgG to detect background antibody binding. The cells were washed and primary antibodies detected with Fc domain-specific secondary antibodies conjugated to a fluorescent chromophore (e.g. phycoerythrin conjugated anti-human IgG). Labeled cells were then analyzed by flow cytometry to identify anti-FZD antibodies that specifically recognize cell surface expression of FZD protein. Monoclonal antibodies 18R5 and 18R8 recognized FZD on transfected cells. As shown in FIG. 1 and FIG. 2, both 18R8 and 18R5 bind to multiple FZD including FZD1, FZD2, FZD5, FZD7, and FZD8. […]
(§2) HEK293 cells were co-transfected with a plasmid DNA expressing full-length FZD1, 2, 5, 7 or 8 along with another plasmid expressing the reporter gene GFP used as a transfection marker. […] The cells were washed and bound anti-Fzd antibodies were detected with a secondary anti-human antibody conjugated to a fluorescent chromophore. Labeled cells were then detected and counted by FACS. The FACS data generated were expressed in Mean Fluorescence Intensity (MFI) units. […]

The target in a further assay is T2, FZD1 (Homo sapiens, UniProt Q9UP38).
T2 construct: plasmid DNA expressing full-length FZD1, 2, 5, 7 or 8; expressed in transfected cells; host or cells: HEK293
The assay can be described thus: FACS binding to FZD-transfected HEK293 cells. The conditions noted are these: FACS MFI dose-response, full-length FZD in HEK293, 20 μg/ml 4-fold dilutions. On the procedure: as §1, §2

Another assay deals with T3, FZD2 (Homo sapiens, UniProt Q14332).
T3 construct: plasmid DNA expressing full-length FZD1, 2, 5, 7 or 8; expressed in transfected cells; host or cells: HEK293
The assay can be described thus: FACS binding to FZD-transfected HEK293 cells. The conditions noted are these: FACS MFI dose-response, full-length FZD in HEK293, 20 μg/ml 4-fold dilutions. On the procedure:
as §1, §2

In assay [2] the target is T1, FZD7. The assay can be described thus: Biacore affinity to recombinant Fzd Fc protein. As to conditions: IgG antibody; Fzd Fc immobilized on CM5 Biacore chip. The assay is classed as binding. Also noted: Fc (C). On the procedure: The KDs of 18R8 and 18R5 antibodies were determined using the Biacore 2000 system from Biacore Lifescience (GE Healthcare). Specifically, purified anti-Fzd7 antibodies were serially diluted in 2-fold increments from 100 to 0.78 nM in HBS-P (0.01 M HEPES pH 7.4, 0.15 M NaCl, 0.005% v/v Surfactant P20). Each dilution was tested against recombinant Fzd Fc proteins immobilized onto a CM5 Biacore chip. The association and dissociation rates were measured and KD values determined using the Biaevaluation software program (Table 5, below).

Another assay has as its system OMP-Pn4 tumors. Put plainly: Limiting dilution assay of cancer stem cell frequency in treated OMP-Pn4 tumors. The assay is classed as in vivo, NOD/SCID mice. The conditions noted are these: tumors after 41 days treatment; 30-810 cells re-injected, 75 days; L-Calc. Here is the method: Control and treated tumors from the OMP-Pn4 xenograft study described above (Example 7) were harvested at the end of 41 days treatment. The tumors were processed and dissociated into single cells. Tumor cells were then incubated with biotinylated mouse antibodies (α-mouse CD45-biotin 1:200 dilution and rat α-mouse H2 Kd-biotin 1:100 dilution, BioLegend, San Diego, Calif.) on ice for 30 min followed by addition of streptavidin-labeled magnetic beads (Invitrogen, Carlsbad, Calif.) to remove mouse cells. The remaining human cells in the suspension were collected, counted and diluted to appropriate cell doses (30, 90, 270 and 810 cells), mixed in the mixture of 1:1 (v/v) FACS buffer and Matrigel and injected subcutaneously in NOD/SCID mice (10 mice per cell dose per treatment group). Each dot in FIG. 40 represents the tumor volume of an individual mouse. The percentage of mice with detectable tumors was determined in all groups injected with anti-FZD antibody treated tumor cells and compared to the percentage of mice with detectable tumors in the controls. For example, the number of mice injected with 810 control-treated tumor cells that have detectable tumors was determined and compared to the number of mice injected with 810 FZD-antibody treated tumor cells that have detectable tumors. […]

T3 sequence (Q14332 24-565): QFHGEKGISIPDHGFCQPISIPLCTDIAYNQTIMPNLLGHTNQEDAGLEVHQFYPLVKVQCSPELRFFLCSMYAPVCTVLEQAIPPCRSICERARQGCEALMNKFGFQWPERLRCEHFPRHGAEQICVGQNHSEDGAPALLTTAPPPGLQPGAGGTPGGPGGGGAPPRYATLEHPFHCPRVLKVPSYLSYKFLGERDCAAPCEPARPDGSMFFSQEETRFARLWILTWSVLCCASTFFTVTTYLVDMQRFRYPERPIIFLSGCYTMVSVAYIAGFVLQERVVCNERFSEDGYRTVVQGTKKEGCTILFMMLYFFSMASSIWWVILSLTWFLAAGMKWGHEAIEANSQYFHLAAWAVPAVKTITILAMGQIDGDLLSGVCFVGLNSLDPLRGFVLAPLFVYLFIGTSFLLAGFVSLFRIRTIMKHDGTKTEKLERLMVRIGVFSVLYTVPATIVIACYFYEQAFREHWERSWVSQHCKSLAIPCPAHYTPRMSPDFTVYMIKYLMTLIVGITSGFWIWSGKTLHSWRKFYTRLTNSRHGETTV
T2 sequence (Q9UP38 70-647): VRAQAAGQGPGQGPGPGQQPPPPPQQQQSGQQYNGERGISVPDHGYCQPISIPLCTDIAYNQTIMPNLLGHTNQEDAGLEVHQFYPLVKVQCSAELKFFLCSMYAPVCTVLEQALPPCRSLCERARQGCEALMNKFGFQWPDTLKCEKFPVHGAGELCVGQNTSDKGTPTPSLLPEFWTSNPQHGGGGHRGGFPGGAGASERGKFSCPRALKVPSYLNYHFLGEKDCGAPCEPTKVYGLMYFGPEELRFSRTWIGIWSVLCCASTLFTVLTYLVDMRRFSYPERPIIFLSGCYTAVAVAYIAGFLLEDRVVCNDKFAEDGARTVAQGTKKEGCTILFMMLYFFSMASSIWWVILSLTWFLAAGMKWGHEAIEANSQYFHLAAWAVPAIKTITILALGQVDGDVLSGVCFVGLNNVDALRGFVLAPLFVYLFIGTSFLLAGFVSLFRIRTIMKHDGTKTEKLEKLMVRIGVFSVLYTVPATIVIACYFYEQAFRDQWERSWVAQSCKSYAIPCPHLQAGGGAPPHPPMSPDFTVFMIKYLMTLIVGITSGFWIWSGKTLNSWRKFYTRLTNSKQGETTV

As to `CCc1c2c(nc3ccc(OC(=O)N4CCC(N5CCCCC5)CC4)cc13)-c1cc3c(c(=O)n1C2)COC(=O)[C@]3(O)CC` [irinotecan, reference compound], in the assay with OMP-C28 tumors, the “bulk tumor population expressing both ESA and CD44 at high levels (double positive)” value amounted to 55%.

As a reminder, the EC50 is the concentration that produces a half-maximal response. Lower therefore signals higher potency in that assay. As usually defined, the Kd is the free concentration of one partner at which half of the binding sites on the other are occupied at equilibrium, for simple one-to-one binding. Take “18R5: human anti-FZD antibody; VH SEQ ID NO:10 (as 18R8), VL SEQ ID NO:14; binds FZD1, 2, 5, 7, 8”: the figures for the EC50 with FZD7 [1], with FZD1 and in the assay with FZD2 were 0.58 nM, 0.41 nM and 0.62 nM, respectively. For the same molecule, the dissociation constant (Kd) with FZD7 [2] is 1.8 nM.

For the molecule `Nc1ccn([C@@H]2O[C@H](CO)[C@@H](O)C2(F)F)c(=O)n1` [gemcitabine, reference compound], the “cancer stem cell frequency” value in the assay with OMP-Pn4 tumors is “had no effect”.
